Article PMC4890791

Tests used:
Assay in all cases: EMSA
Settings in all cases: EMSA: 10 mM NaCl, 0.1 mM DTT, 0.1 mM EDTA, 10 mM Tris pH 7.4, 25 C 30 min (22-42 C series in Fig 5C), 20 ng Cy5 probe, poly(dI:dC); footprinting: 400 ng FAM …
[1] = tested on: RpoE (sigma E) (Vibrio alginolyticus (EPGS))
[2] = tested on: T1, AphA (Vibrio alginolyticus (EPGS)), ORF:ebbe691c
T1 sequence: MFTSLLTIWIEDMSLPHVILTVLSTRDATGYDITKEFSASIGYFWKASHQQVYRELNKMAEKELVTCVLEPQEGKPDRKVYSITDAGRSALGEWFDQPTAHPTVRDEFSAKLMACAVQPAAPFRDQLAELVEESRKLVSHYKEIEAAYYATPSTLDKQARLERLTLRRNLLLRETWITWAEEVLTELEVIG

[3] = molecular target: T2, RpoE (sigma E) (Vibrio alginolyticus (EPGS)) (UniProt A0A0H0YA85)
T2 sequence: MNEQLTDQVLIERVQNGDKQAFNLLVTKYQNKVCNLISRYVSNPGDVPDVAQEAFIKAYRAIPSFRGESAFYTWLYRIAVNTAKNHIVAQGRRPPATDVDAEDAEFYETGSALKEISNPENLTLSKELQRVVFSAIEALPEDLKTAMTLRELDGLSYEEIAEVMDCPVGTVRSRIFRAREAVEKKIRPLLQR

Row | Substance | Kd [1] [nM] | binding [2] | Kd [3] [nM] | binding [3]
1 | PrpoE | 76 |  |  | 
2 | PluxR | 83 |  |  | 
3 | PrpoH | 75 |  |  | 
4 | AGTCGCACGCAAACGATCACCTAATCTTACGGCGTGTAGTGTATCACCACGTTCATTGGGTTGAAAGTCGCATCCTGTTGCCAAAAAATCTTGGAAGAAGGTCTTAGTTTTATAAAGTTCATAGCTAAATTTATCAATAATAATGACATTACTGTATATAAATTGTTCTACAGATGTTGACCTTGTGCATATGCACCATTACACTCATCACTGCTTTAAGCAACTATTAAAATAATCAATTAGGGGGTTACCCCCAATATCAACTCAAATGGCAAGGAAAATGGAT (double strand) [PluxR] |  | binds | 83 | binds
5 | AAGATGCTCGCTTGTCAAACTTAGACTAAAGTCAGGCAGCGGTGGTCATTTGGGTACAGACATCACACTGTGAAAAAACAATGACAAAAAACTTGAGAAACCATGGAACTTTCTCATTCACGTTAGGGTCACAATAGTGCTCAAGTAAGCAGTGGTGTCAATACTACGTTTTGCATAATTAGTACCCATATCTGAGAAGAGTAGGGGCATAACAAATAGGAGTATCCGCTCGAATG (double strand) [PrpoE] |  |  | 76 | binds
